Laboratory results taken from the supplement of paper PMC10567573.

B1: TRIB1 (parent)
chain: SYVRSRKRLREEEAARLFKQIVSA
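Note: lentivirally expressed fusions sorted by FACS into six bins by GFP to DsRed ratio, PSI derived from sequencing read proportions per bin multiplied by bin number.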

Variants of: B1
Test: protein stability index of a GFP-peptide fusion (GPS, HEK-293T) (PSI 1-6); higher = more stable
Settings: c terminus: a fixed tail appended
In the case of SYMRSRKRLREEEAARLFKQIVSA [V3M], the protein stability index is reported as 1.58. For SYARSRKRLREEEAARLFKQIVSA [V3A], the protein stability index was 1.68. SYKRSRKRLREEEAARLFKQIVSA [V3K] showed a protein stability index of 1.99. With SYSRSRKRLREEEAARLFKQIVSA [V3S] the protein stability index was 2.36. SYGRSRKRLREEEAARLFKQIVSA [V3G] gave a protein stability index of 1.3. SYRRSRKRLREEEAARLFKQIVSA [V3R] gave a protein stability index of 2.63. With SYDRSRKRLREEEAARLFKQIVSA [V3D] the protein stability index was 2.05. For SYLRSRKRLREEEAARLFKQIVSA [V3L], the protein stability index was 2.08. In the case of SYVRSRKYLREEEAARLFKQIVSA [R8Y], the protein stability index is reported as 1.99. SYVRSRKCLREEEAARLFKQIVSA [R8C] showed a protein stability index of 2.05. For SYVRSRKWLREEEAARLFKQIVSA [R8W], the protein stability index was 1.95. With SYVRSRKQLREEEAARLFKQIVSA [R8Q] the protein stability index was 2.38. SYVRSRKALREEEAARLFKQIVSA [R8A] showed a protein stability index of 2.3. In the case of SYVRSRKFLREEEAARLFKQIVSA [R8F], the protein stability index is reported as 1.48. Variant SYVRSRKMLREEEAARLFKQIVSA [R8M] has a protein stability index of 1.58. For SYVRSRKKLREEEAARLFKQIVSA [R8K], the protein stability index was 2.49. Variant SYVRSRKLLREEEAARLFKQIVSA [R8L] has a protein stability index of 2.03. For SYVRSRKSLREEEAARLFKQIVSA [R8S], the protein stability index was 1.99. With SYVRSRKPLREEEAARLFKQIVSA [R8P] the protein stability index was 2.09. With SYVRSRKELREEEAARLFKQIVSA [R8E] the protein stability index was 3.2. Work on SYVRSRKILREEEAARLFKQIVSA [R8I] yielded a protein stability index of 2.3. With SYVRSRKDLREEEAARLFKQIVSA [R8D] the protein stability index was 1.78. For SYVRSRKNLREEEAARLFKQIVSA [R8N], the protein stability index was 2.6. With SYVRSRKHLREEEAARLFKQIVSA [R8H] the protein stability index was 1.96. With SYVRSRKVLREEEAARLFKQIVSA [R8V] the protein stability index was 2.37. Variant SYVCSRKRLREEEAARLFKQIVSA [R4C] has a protein stability index of 1.7. In the case of SYVISRKRLREEEAARLFKQIVSA [R4I], the protein stability index is reported as 1.57. SYVVSRKRLREEEAARLFKQIVSA [R4V] showed a protein stability index of 2.28. SYVHSRKRLREEEAARLFKQIVSA [R4H] showed a protein stability index of 2.56. With SYVNSRKRLREEEAARLFKQIVSA [R4N] the protein stability index was 2.76. With SYVESRKRLREEEAARLFKQIVSA [R4E] the protein stability index was 2.76. SYVYSRKRLREEEAARLFKQIVSA [R4Y] gave a protein stability index of 2.11. In the case of SYVASRKRLREEEAARLFKQIVSA [R4A], the protein stability index is reported as 1.41. With SYVWSRKRLREEEAARLFKQIVSA [R4W] the protein stability index was 1.29. SYVFSRKRLREEEAARLFKQIVSA [R4F] gave a protein stability index of 1.22. With SYVLSRKRLREEEAARLFKQIVSA [R4L] the protein stability index was 2.35. With SYVSSRKRLREEEAARLFKQIVSA [R4S] the protein stability index was 1.87. For SYVPSRKRLREEEAARLFKQIVSA [R4P], the protein stability index was 1.77. For SYVMSRKRLREEEAARLFKQIVSA [R4M], the protein stability index was 2.12. SYVDSRKRLREEEAARLFKQIVSA [R4D] showed a protein stability index of 2.44. Variant SYVQSRKRLREEEAARLFKQIVSA [R4Q] has a protein stability index of 2.09. SYVTSRKRLREEEAARLFKQIVSA [R4T] gave a protein stability index of 1.8. With SYVRSRKRRREEEAARLFKQIVSA [L9R] the protein stability index was 2.07. In the case of SYVRSRKRDREEEAARLFKQIVSA [L9D], the protein stability index is reported as 2.47. SYVRSRKRPREEEAARLFKQIVSA [L9P] showed a protein stability index of 1.86. Work on SYVRSRKRIREEEAARLFKQIVSA [L9I] yielded a protein stability index of 3.23. Work on SYVRSRKRCREEEAARLFKQIVSA [L9C] yielded a protein stability index of 1.5. In the case of SYVRSRKRFREEEAARLFKQIVSA [L9F], the protein stability index is reported as 1.68. Work on SYVRSRKRAREEEAARLFKQIVSA [L9A] yielded a protein stability index of 1.91. SYVRSRKRQREEEAARLFKQIVSA [L9Q] showed a protein stability index of 2.3. SYVRSRKRKREEEAARLFKQIVSA [L9K] showed a protein stability index of 2.25. Work on SYVRSRKRHREEEAARLFKQIVSA [L9H] yielded a protein stability index of 2.24. In the case of SYVRSRKRMREEEAARLFKQIVSA [L9M], the protein stability index is reported as 3.22. Variant SYVRFRKRLREEEAARLFKQIVSA [S5F] has a protein stability index of 2.4. Variant SYVRHRKRLREEEAARLFKQIVSA [S5H] has a protein stability index of 1.94. For SYVRNRKRLREEEAARLFKQIVSA [S5N], the protein stability index was 2.12. SYVRCRKRLREEEAARLFKQIVSA [S5C] gave a protein stability index of 1.62. For SYVRMRKRLREEEAARLFKQIVSA [S5M], the protein stability index was 1.92. In the case of SYVRGRKRLREEEAARLFKQIVSA [S5G], the protein stability index is reported as 3.13. Work on SYVRLRKRLREEEAARLFKQIVSA [S5L] yielded a protein stability index of 2.5. Work on SYVRKRKRLREEEAARLFKQIVSA [S5K] yielded a protein stability index of 2.31. For SYVRARKRLREEEAARLFKQIVSA [S5A], the protein stability index was 1.76. For SYVRYRKRLREEEAARLFKQIVSA [S5Y], the protein stability index was 2.65. Work on SYVRTRKRLREEEAARLFKQIVSA [S5T] yielded a protein stability index of 2.21. Variant SYVRPRKRLREEEAARLFKQIVSA [S5P] has a protein stability index of 2.27. SYVRDRKRLREEEAARLFKQIVSA [S5D] gave a protein stability index of 2.24. Variant SYVRIRKRLREEEAARLFKQIVSA [S5I] has a protein stability index of 1.73. Work on SYVRERKRLREEEAARLFKQIVSA [S5E] yielded a protein stability index of 1.39. SSVRSRKRLREEEAARLFKQIVSA [Y2S] gave a protein stability index of 1.9. Work on SGVRSRKRLREEEAARLFKQIVSA [Y2G] yielded a protein stability index of 1.83. Work on SRVRSRKRLREEEAARLFKQIVSA [Y2R] yielded a protein stability index of 2.17. SFVRSRKRLREEEAARLFKQIVSA [Y2F] showed a protein stability index of 1.54. In the case of SHVRSRKRLREEEAARLFKQIVSA [Y2H], the protein stability index is reported as 2.58. With SWVRSRKRLREEEAARLFKQIVSA [Y2W] the protein stability index was 1.25. SMVRSRKRLREEEAARLFKQIVSA [Y2M] showed a protein stability index of 2.91. Work on SNVRSRKRLREEEAARLFKQIVSA [Y2N] yielded a protein stability index of 2.83. Work on STVRSRKRLREEEAARLFKQIVSA [Y2T] yielded a protein stability index of 2.38. Variant SIVRSRKRLREEEAARLFKQIVSA [Y2I] has a protein stability index of 1.78. Work on SAVRSRKRLREEEAARLFKQIVSA [Y2A] yielded a protein stability index of 2.5. Variant SVVRSRKRLREEEAARLFKQIVSA [Y2V] has a protein stability index of 2.33. Work on SQVRSRKRLREEEAARLFKQIVSA [Y2Q] yielded a protein stability index of 2.48. In the case of SKVRSRKRLREEEAARLFKQIVSA [Y2K], the protein stability index is reported as 2.14. For PYVRSRKRLREEEAARLFKQIVSA [S1P], the protein stability index was 2.1. Work on NYVRSRKRLREEEAARLFKQIVSA [S1N] yielded a protein stability index of 2.2. FYVRSRKRLREEEAARLFKQIVSA [S1F] gave a protein stability index of 1.45. In the case of VYVRSRKRLREEEAARLFKQIVSA [S1V], the protein stability index is reported as 1.65. MYVRSRKRLREEEAARLFKQIVSA [S1M] gave a protein stability index of 1.82. Work on YYVRSRKRLREEEAARLFKQIVSA [S1Y] yielded a protein stability index of 1.41. Variant DYVRSRKRLREEEAARLFKQIVSA [S1D] has a protein stability index of 1.88. For AYVRSRKRLREEEAARLFKQIVSA [S1A], the protein stability index was 2.07. In the case of KYVRSRKRLREEEAARLFKQIVSA [S1K], the protein stability index is reported as 2.98. EYVRSRKRLREEEAARLFKQIVSA [S1E] gave a protein stability index of 1.5. RYVRSRKRLREEEAARLFKQIVSA [S1R] gave a protein stability index of 1.95. In the case of QYVRSRKRLREEEAARLFKQIVSA [S1Q], the protein stability index is reported as 1.58.
